Among the data in paper PMC9570423 are fold of self-interaction (β-galactosidase activity) against the self-interaction of PagR1Bc and Kd values, retold here.

For series [1], the target named is PagRBc, PagR homologue (ArsR/SmtB family transcription factor) of emetic B. cereus F4810/72, encoded on pCER270 (Bacillus cereus F4810/72 (emetic reference strain)). Kind of series: two-hybrid.
Series [2] relates to PagR1Bc (Bacillus cereus F4810/72 (AH187), plasmid pCER270). The experiment in a line: EMSA.
Series [3] has as its system PagRBa (PagR) (Bacillus anthracis Sterne, plasmid pXO1). Kind of series: EMSA.
Series [4] has as its system PagRBc (Bacillus cereus F4810/72 (AH187), plasmid pCER270). The experiment in a line: EMSA.

In series [1], “PagRBc, PagR homologue (ArsR/SmtB family transcription factor) of emetic B. cereus F4810/72, encoded on pCER270 (natural protein)” came in with a fold of self-interaction (β-galactosidase activity) against the self-interaction of PagR1Bc of 1.75 fold.
Consider cesP main promoter (cesPII), 523 bp, for which the dissociation constant Kd came to 150 nM in series [2], 25 nM in series [3] and 25 nM in series [4].
